Two molecules from patent publication US20250085298A1 (TRITON SYSTEMS, published 2025) can be followed below.

For assay [1], the target named is T1, rabbit α-crystallin A (CRYAA), native protein in rabbit intraocular fluid (rabbit, UniProt P02493 1-173, limits assumed).
T1 construct: Analyte of the lateral flow assay in rabbit samples; also called Crystallin-αA; αA-Crystallin
T1 sequence (looked up): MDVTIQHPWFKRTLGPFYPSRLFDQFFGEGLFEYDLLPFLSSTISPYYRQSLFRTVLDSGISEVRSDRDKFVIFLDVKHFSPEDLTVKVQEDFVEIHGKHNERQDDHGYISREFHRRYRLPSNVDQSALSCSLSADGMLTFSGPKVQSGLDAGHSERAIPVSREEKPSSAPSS
The experiment in a line: lateral flow sandwich strip, MAB1601-AuNP conjugate with MAB1301 test line; swab of rabbit eye, Arm 3: 3 mm full-thickness laceration, AC/limbus, no confounder. How it is done: (§1) The expected results were that either one, or two, distinct red lines would form on the readout area of the test strip. The bottom half of the readout area on the nitrocellulose strip was expected to always show a red line (control), while appearance of the second line confirmed a positive result. The results were documented and whole test strip was imaged after removing the top of its plastic casing. The test strips were labelled and shipped on cold packs. For the second sample, 10-30 μL (as much as possible up to 30 μL) of the remaining ocular film was drawn by pipette and deposited in a microcentrifuge tube labeled with identities corresponding to the test strips. To this liquid sample, an equal volume of RNAlater solution was added and the sample was stored at −80° C. until shipment to the client on dry ice. Following sedation, rabbits were euthanized by intravenous barbiturate overdose. Euthasol® was delivered via the marginal ear vein at a concentration of 390 mg/ml, and a dose of 87 mg/kg. Following confirmation of euthanasia, whole corneas with sclera rims were collected and immediately placed in PBS. The medium was then exchanged for freshly made 4% PFA and tissue was fixed at room temperature for 23 hours. The tissue was then embedded in paraffin and shipped for further analysis. […]

Assay [2] deals with T1, rabbit α-crystallin A (CRYAA), native …. The experiment in a line: lateral flow sandwich strip, MAB1601-AuNP conjugate with MAB1301 test line; swab of rabbit eye, Arm 9: 1 mm full-thickness puncture, peripheral cornea, no confounder. The protocol: as §1

B1: MAB1601 (Conjugate Ab; target recognition element) (antibody, mouse IgG1, kappa, V domains shown)
VH: EVKLQESGPSLVKPSQTLSLTCSVTGDSITSGYWNWIRKFPGNKLEYMGYISYSGSTYFNPSLKSRISITRDTSKNQYYLQLNSVTTEDTATYYCSTGFAYWGQGTLVTVSA
VL: DIVMSQSPSSLAVSVGEKVIMRCNSSQSLLYSGNRENYLAWYQQKPGQSPNLLIYWASRRASGVPDRFAGGGSGTDFTLTISSVKAEDLAVYYCQHYYNYPLTFGAGTRLELKR
notes: Custom anti-CRYAA monoclonal antibody made in mice against the modified C-terminal CRYAA immunogen; In the assay its amines were coupled to carboxyl gold nanoparticles by EDC/sNHS chemistry; also called conjugate antibody; upstream target recognition element
Regarding B1, the binding result in assay [1] is “binds”.

B2: MAB1301 (Test Line Ab; test element) (antibody, mouse IgG1, kappa, V domains shown)
VH: EVKLQESGPSLVRPGASVKMSCKASGYTFTSYNMHWVKQTPRQGLEWIGAIYPGNGDTSYNQKFKGKATLTVDKSSSTAYMQLSSLTSEDSAVYFCARVVYYSNSYWYFDVWGTGTTVTVSA
VL: DIVMSQSPSSLAVSVGEKVIMRCNSSQSLLYSGNRENYLAWYQQKPGQSPNLLIYWASRRASGVPDRFAGSGSGTDFTLTISSVKAEDLAVYYCQHYYNYPLTFGAGTRLELKR
notes: Custom anti-CRYAA monoclonal antibody made in mice; It was immobilised on the nitrocellulose test line; also called MAB1301 T-line; test-line antibody
For B2, the binding result in assay [2] was “binds”.
